Measured values published in PMC7272391.
Values joined by “and” are separate entries in the source; they are usually repeats but may differ in a detail not shown here. Equal entries are not always repeated.

How the values were obtained:
[1] = biological target: human neonatal Fc receptor (human) (UniProt P55899); test: SPR; BIAcore chip with immobilised anti-β2-microglobulin antibody capturing human FcRn; antibody diluted >5000-fold in assay buffer and injected at 0.15625-2.5 μg/mL; bivalent analyte model
[2] = biological target: human Fc-gamma receptor I (human) (UniProt P12314); test: SPR; BIAcore chip with immobilised anti-His antibody capturing His-tagged human FcγRI; antibody diluted >5000-fold in assay buffer and injected at 0.125-4.0 μg/mL; 1:1 Langmuir binding model
[3] = biological target: human Fc-gamma receptor IIIa(F) (human) (UniProt P08637); test: SPR; BIAcore chip with immobilised anti-His antibody capturing His-tagged human FcγRIIa, IIb, IIIa(F), IIIa(V), IIIbNA1 or IIIbNA2; antibody exchanged into assay buffer and injected at 0.125-4.0 mg/mL; steady state affinity model
[4] = biological target: human Fc-gamma receptor IIa (human) (UniProt P12318); test: as above
[5] = biological target: human Fc-gamma receptor IIb (human) (UniProt P31994); test: as above
UniProt P31994, sequence (P31994 43-310): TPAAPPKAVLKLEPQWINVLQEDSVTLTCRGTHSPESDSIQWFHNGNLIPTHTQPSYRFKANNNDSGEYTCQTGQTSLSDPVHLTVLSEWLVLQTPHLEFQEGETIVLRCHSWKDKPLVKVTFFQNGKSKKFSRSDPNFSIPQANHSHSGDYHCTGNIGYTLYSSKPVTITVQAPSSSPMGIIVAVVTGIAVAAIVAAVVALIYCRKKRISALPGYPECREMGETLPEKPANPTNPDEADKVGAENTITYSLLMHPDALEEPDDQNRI

UniProt P55899, sequence (P55899 24-365, chain 1 of 2): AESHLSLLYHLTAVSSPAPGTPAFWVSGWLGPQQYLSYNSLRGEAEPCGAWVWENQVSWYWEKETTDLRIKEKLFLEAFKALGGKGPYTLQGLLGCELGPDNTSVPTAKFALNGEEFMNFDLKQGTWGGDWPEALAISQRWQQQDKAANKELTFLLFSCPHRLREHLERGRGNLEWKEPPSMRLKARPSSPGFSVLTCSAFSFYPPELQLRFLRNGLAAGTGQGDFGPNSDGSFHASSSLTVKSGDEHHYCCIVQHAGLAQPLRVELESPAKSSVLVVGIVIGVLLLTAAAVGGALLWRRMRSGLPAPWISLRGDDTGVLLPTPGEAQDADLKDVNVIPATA
UniProt P55899, sequence (P61769 21-119, chain 2 of 2, further chain): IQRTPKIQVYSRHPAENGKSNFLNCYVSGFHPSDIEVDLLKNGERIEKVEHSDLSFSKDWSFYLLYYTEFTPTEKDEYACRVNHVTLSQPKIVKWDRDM
UniProt P12314, sequence (P12314 16-374): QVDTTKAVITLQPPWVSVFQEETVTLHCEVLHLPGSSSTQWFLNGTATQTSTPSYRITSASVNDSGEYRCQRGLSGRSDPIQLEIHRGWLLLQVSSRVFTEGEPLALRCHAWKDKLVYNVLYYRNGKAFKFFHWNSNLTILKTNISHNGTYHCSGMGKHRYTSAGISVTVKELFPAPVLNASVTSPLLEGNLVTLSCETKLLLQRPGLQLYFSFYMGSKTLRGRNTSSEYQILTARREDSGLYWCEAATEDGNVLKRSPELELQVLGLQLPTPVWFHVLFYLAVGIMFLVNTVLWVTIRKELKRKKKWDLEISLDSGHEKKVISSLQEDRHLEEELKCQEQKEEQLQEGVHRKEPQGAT
UniProt P12318, sequence (P12318 34-317): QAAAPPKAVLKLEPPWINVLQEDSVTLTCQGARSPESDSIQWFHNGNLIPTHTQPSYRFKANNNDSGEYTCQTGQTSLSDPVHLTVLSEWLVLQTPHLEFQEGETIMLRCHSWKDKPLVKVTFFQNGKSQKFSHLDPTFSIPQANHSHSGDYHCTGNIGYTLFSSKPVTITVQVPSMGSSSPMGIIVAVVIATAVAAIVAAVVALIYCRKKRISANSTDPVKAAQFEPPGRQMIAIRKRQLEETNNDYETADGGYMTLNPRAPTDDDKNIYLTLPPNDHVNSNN
UniProt P08637, sequence (P08637 17-254): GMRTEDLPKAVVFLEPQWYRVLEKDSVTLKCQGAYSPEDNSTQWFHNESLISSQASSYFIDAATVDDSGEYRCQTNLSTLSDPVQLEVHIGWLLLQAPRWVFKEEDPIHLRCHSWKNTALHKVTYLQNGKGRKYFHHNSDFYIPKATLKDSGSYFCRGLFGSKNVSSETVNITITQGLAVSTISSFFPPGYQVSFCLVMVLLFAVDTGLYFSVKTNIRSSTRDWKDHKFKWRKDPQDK

FKB327 (antibody)
Kd [1]: 0.0664 µM and 0.0759 µM
Kd [2]: 0.000382 µM and 0.000436 µM
Kd [3]: 1 µM
Kd [4]: 7.65 µM and 8.47 µM
Kd [5]: 13.8 µM and 15.7 µM
